Experimental data reported in article PMC10022642, “Abscisic acid promotes auxin biosynthesis to inhibit primary root elongation in rice”.
Numbering of substitutions follows the chain as printed.

T1: GST-OsbZIP46 (Oryza sativa, UniProt Q69TW5 1-324)
T1 sequence: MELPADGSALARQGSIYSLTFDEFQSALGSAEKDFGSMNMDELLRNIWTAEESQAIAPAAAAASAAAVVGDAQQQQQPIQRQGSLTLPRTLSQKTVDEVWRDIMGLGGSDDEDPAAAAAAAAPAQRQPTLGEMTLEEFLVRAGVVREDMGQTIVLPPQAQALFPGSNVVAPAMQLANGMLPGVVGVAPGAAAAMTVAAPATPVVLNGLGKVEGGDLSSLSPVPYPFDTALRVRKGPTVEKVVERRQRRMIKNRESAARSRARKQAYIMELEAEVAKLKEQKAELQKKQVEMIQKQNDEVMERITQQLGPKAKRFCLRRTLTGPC

B1: YUC8-Probe (YUC8/REIN7 promoter, P3 G-box) (dsDNA)
DNA 1: GTTGGAAAGCGTATTTTATTCGCAACGTGCGGTTCTTCCAGTTTCTCGGC
DNA 2: GCCGAGAAACTGGAAGAACCGCACGTTGCGAATAAAATACGCTTTCCAAC
B2: YUC8-Mutant Probe (dsDNA)
DNA 1: B1 DNA 1 with C26A, G27A, T28A, G29A
DNA 2: B1 DNA 2 with C22T, A23T, C24T, G25T

Legend:
[1] = molecular target: T1, GST-OsbZIP46; test: EMSA; LightShift Chemiluminescent EMSA kit, 20 min at room temperature, 5% native polyacrylamide gel; buffer, salt and pH not stated; conditions: protein: recombinant; tags: GST (N-terminal, pGEX-6p-1); chain copies: 2
[2] = molecular target: T1, GST-OsbZIP46; test: EMSA; labeled mutant probe; LightShift Chemiluminescent EMSA kit, 20 min at room temperature, 5% native polyacrylamide gel; buffer, salt and pH not stated; conditions: protein: recombinant; tags: GST (N-terminal, pGEX-6p-1); chain copies: 2; label: 3' biotin

Binder	binding result [1]	binding result [2]
B1	binds	
B2		no binding
